Assay [1] addresses IL5 (human) (UniProt P05113). Briefly: flow cytometry blocking IL5/IL5R. In general terms: A flow cytometer gives signals particle by particle.
The target in assay [2] is IL5 (human) (UniProt P05113). Kind of assay: ELISA.
Assay [3] concerns the target IL5 (human) (UniProt P05113). Briefly: flow cytometry blocking IL5/IL5R. This is another data set of the same source.
Assay [4] addresses IL5 (human) (UniProt P05113). Briefly: Flow cytometry, blocking of IL5-biotin binding to HEK293F cells expressing IL5R.
The target in assay [5] is IL5 (human) (UniProt P05113). Kind of assay: cell-based or functional assay.

By IC50 is commonly meant the concentration needed to halve the response being measured. A high value points to lower potency. The term EC50 denotes the concentration giving half of the maximal effect. Read a low EC50 as higher potency in that assay. In the case of Control Ab Nucala, the IC50 is 2.96 µg/mL in assay [1] and 2.36 µg/mL in assay [3]. Besides, the EC50 in assay [2] was 0.0563 µg/mL.
In turn, Nucala (antibody) had an IC50 in assay [4] of 2.04 µg/mL. This substance also registered an IC50 of inhibition of the proliferation of TF-1 cells induced by IL5 (CCK8, OD450) in assay [5] of 0.178 nM.
